Literature values in PMC4769797.

Biological target: VEGFR1 (Homo sapiens) (UniProt P17948)
Sequence of UniProt P17948 (P17948 27-1338): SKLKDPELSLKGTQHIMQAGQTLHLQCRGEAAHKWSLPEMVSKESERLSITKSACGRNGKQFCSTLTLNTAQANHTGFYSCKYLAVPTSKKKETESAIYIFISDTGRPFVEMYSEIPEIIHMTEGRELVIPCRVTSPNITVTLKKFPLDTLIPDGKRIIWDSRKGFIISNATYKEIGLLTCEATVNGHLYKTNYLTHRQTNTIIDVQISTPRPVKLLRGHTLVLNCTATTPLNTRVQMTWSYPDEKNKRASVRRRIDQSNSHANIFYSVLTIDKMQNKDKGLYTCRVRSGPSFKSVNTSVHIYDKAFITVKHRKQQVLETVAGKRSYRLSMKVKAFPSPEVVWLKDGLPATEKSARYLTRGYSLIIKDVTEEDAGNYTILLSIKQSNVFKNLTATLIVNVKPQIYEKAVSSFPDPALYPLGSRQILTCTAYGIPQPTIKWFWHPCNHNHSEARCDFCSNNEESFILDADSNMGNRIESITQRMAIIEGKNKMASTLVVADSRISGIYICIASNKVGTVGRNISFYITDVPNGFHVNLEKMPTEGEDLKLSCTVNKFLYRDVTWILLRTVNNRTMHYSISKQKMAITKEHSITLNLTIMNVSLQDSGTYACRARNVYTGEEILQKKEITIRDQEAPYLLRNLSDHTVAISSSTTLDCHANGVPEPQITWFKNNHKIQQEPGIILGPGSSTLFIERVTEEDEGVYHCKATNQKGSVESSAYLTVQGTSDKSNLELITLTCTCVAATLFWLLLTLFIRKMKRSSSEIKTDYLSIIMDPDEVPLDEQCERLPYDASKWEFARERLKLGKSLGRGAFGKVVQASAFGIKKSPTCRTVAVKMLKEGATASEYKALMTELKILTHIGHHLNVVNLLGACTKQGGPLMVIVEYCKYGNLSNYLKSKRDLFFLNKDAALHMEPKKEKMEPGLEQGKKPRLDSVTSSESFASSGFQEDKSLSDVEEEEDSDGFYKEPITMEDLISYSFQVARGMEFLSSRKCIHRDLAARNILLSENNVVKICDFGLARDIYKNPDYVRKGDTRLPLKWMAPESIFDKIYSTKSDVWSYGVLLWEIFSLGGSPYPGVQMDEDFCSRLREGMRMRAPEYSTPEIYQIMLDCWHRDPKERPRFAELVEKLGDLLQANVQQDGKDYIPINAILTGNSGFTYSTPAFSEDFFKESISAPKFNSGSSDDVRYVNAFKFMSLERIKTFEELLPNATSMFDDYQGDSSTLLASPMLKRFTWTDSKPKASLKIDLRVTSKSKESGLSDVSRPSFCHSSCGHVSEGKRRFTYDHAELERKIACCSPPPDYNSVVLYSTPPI

## VEGFA (from UniProt P15692)
  Kd: 0.1 nM
